Biological target: T1, SCRIB PDZ3 K1040A (human, UniProt Q14160 1002-1094, K1040A)
T1 sequence: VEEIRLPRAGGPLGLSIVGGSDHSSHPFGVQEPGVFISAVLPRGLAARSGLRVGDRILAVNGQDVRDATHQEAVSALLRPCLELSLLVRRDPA
Test: ITC
Settings: both partners purified

B1: TBEV NS5_CTN peptide (C-terminal PBM of NS5) (peptide)
peptide: LRLESSII
Q: What does the source list for B1?
A: Kd: 12.5 µM; dH: -6.7 kcal/mol; stoichiometry N: 0.9
